From PMC10672034, “Characterization of a Type II L-Asparaginase from the Halotolerant Bacillus subtilis CH11” (Life, 2023)

Key:
[1] = target: L-ASNasaZP21 (N-terminally truncated type II L-asparaginase of Bacillus subtilis CH11) (Bacillus subtilis CH11) (UniProt O34482); test: SEC; HiPrep 16/60 Sephacryl S-200 HR, 50 mM Tris-HCl, 100 mM NaCl, pH 8.5, 0.5 mL/min; molecular weight from a standard curve (Protein Standard Mix 15-600 kDa), semi-log graph
[2] = substrate: NC(=O)C[C@H](N)C(=O)O; test: Nessler ammonia assay, Lineweaver-Burk plot; format: biochemical, Bacillus subtilis; details: pH 9, 60 °C, 10 min, 2-14 mM substrate

Row | stoichiometry N [1] | Molecule | Km [2] [mM]
1 | 4 | L-ASNasaZP21 (N-terminally truncated type II L-asparaginase of Bacillus subtilis CH11) (from UniProt O34482 21-375) (enzyme) | –
2 | – | L-ASNasaZP21 (type II L-asparaginase, ansZP21) (Bacillus subtilis subsp. subtilis str. 168; S21P) (protein, signal peptide and Cys20 (first 60 bp) removed; E. coli BL21(DE3)pLysS; homotetramer 155 kDa; forward primer encodes …) PHSPETKESPKEKAQTQKVSSASASEKKDLPNIRILATGGTIAGADQSKTSTTEYKAGVVGVESLIEAVPEMKDIANVSGEQIVNVGSTNIDNKILLKLAKRINHLLASDDVDGIVVTHGTDTLEETAYFLNLTVKSDKPVVIVGSMRPSTAISADGPSNLYNAVKVAGAPEAKGKGTLVVLNDRIASARYVTKTNTTTTDTFKSEEMGFVGTIADDIYFNNEITRKHTKDTDFSVSNLDELPQVDIIYGYQNDGSYLFDAAVKAGAKGIVFAGSGNGSLSDAAEKGADSAVKKGVTVVRSTRTGNGVVTPNQDYAEKDLLASNSLNPQKARMLLMLALTKTNDPQKIQAYFNEY | 4.75
